Our source for the binding result and Kd values is paper doi:10.1101/602623.

The target of series [1] is T1, Cas1-2 integrase complex Wt (Escherichia coli (type I-E), UniProt Q46896;P45956 1-305;1-94).
T1 sequence 1: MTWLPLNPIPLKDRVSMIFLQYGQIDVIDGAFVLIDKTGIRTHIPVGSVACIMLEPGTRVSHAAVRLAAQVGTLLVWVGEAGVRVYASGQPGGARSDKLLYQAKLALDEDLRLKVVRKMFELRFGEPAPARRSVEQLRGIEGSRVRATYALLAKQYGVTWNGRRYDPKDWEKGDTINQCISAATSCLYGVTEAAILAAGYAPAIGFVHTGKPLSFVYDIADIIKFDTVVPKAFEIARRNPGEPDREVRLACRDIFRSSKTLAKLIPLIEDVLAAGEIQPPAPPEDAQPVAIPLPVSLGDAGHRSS
T1 sequence 2: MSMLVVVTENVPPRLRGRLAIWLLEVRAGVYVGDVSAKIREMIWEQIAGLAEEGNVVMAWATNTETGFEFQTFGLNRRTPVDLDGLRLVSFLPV
The series can be described thus: T5 exonuclease footprinting.

Series [2] has as its target T1, Cas1-2 integrase complex Wt. Put plainly: EMSA. For orientation: In EMSA bound probe runs differently from free probe, usually more slowly.
The target in a further series is T2, Cas1-2 Y22A (Escherichia coli (type I-E), UniProt Q46896;P45956 1-305;1-94, Y22A).
T2 sequence 1: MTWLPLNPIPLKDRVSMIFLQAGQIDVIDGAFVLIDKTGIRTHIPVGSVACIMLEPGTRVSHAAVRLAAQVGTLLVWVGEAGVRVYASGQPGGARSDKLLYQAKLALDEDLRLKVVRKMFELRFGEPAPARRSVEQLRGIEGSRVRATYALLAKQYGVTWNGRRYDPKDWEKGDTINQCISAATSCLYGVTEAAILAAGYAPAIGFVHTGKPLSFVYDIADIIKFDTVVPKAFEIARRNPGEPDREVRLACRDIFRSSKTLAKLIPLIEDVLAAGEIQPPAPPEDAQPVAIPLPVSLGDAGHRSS
T2 sequence 2: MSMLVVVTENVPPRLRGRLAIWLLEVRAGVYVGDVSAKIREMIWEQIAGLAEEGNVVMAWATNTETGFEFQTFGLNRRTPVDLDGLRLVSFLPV
The series can be described thus: EMSA.

B1: P63mPAMT* (dsDNA)
DNA 1: CTCCGCGCTGTAGCCCTCACCACTGTTGTGCACGACGACACCAGTCCGTGGCGTTATCCAGCT
DNA 2: AGCTGGATAACGCCACGGACTGGTGTCGTCGTGCACAACAGTGGTGAGGGCTACAGCGCGGAG
As for B1, the binding result in series [1] is given as “binds”.

B2: P63mPAMB* (dsDNA)
DNA 1: CTCCGCGCTGTAGCCCTCACCACTGTTGTGCACGACGACACCAGTCCGTGGCGTTATCCAGCT
DNA 2: AGCTGGATAACGCCACGGACTGGTGTCGTCGTGCACAACAGTGGTGAGGGCTACAGCGCGGAG
B2: in series [1], the binding result is “binds”.

B3: P63 (dsDNA)
DNA 1: CTCCGCGCTGTAGAAGTCACCATTGTTGTGCACGACGACATCATTCCGTGGCGTTATCCAGCT
DNA 2: AGCTGGATAACGCCACGGAATGATGTCGTCGTGCACAACAATGGTGACTTCTACAGCGCGGAG
On to B3, for which the Kd in series [2] stood at 831 nM; in the series with Cas1-2 Y22A, 6220 nM.

B4: P33 (dsDNA)
DNA 1: GCCCAATTTACTACTCGTTCTGGTGTTTCTCGT
DNA 2: ACGAGAAACACCAGAACGAGTAGTAAATTGGGC
As to B4, binding in series [2] was characterised by a dissociation constant (Kd) of 2660 nM.

B5: P23[3'-5] (dsDNA)
DNA 1: ATTTACTACTCGTTCTGGTGTTTCTCGT
DNA 2: AAACACCAGAACGAGTAGTAAATTGGGC
Consider B5, for which, in series [2], binding was put at a Kd of 254 nM.

B6: P23[3'-10] (dsDNA)
DNA 1: ATTTACTACTCGTTCTGGTGTTTCTCGTCAGGG
DNA 2: AAACACCAGAACGAGTAGTAAATTGGGCTTGAG
In series [2], B6 had a Kd of 286 nM.

For orientation: Kd means the constant that tells how readily two partners part at equilibrium.
